Measured values as given in article PMC4191427, “Molecular mechanisms of two-component system RhpRS regulating type III secretion system in Pseudomonas syringae” (Nucleic Acids Research, 2014).
Positions count from the first letter of the chain named.

Columns and labels:
RhpR = target: T1, RhpR (Pseudomonas syringae, UniProt A0ABY1U8E6); experiment: […] phosphorylation, autoradiography; format: biochemical; settings: phosphodonor; covalent phosphorylation (putative site Asp70); labelled compound; 37 °C, 30 min
T1 construct: gene virG; full-length, N-terminal His6 tag (pMCSG19, MBP cut off in vivo), E. coli BL21 star (DE3)

[1] = tested on: T2, RhpRpsph (Pseudomonas syringae pv. phaseolicola), ORF:976030cf; experiment: EMSA; settings: 10 mM Tris-HCl pH 7.4, 50 mM KCl, 5 mM MgCl2, 10% glycerol, 3 ug/ml sheared salmon sperm DNA, room temperature
T2 sequence: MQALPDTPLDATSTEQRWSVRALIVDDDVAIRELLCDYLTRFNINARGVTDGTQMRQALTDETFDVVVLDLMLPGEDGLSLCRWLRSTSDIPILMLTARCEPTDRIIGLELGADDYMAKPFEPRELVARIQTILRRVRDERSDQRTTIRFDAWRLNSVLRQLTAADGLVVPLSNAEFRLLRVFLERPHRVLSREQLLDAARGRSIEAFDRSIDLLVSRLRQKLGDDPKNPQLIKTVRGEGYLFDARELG

[2] = tested on: T3, RhpR (Pseudomonas syringae pv. tomato DC3000?), ORF:d96f1ca2; experiment: EMSA; settings: 10 mM Tris-HCl pH 7.4, 50 mM KCl, 5 mM MgCl2, 10% glycerol, 3 ug/ml sheared salmon sperm DNA, room temperature
T3 sequence: T2 sequence with D6E, T7N, P8T, E15D, T53S

[3] = tested on: RhpR (Pseudomonas syringae pv. tomato DC3000?); experiment: EMSA; settings: 10 mM Tris-HCl pH 7.4, 50 mM KCl, 5 mM MgCl2, 10% glycerol, 3 ug/ml sheared salmon sperm DNA, room temperature

Compound | binding [1] | further results
CC(=O)OP(=O)(O)O [acetyl phosphate] |  | 32P phosphorylation, autoradiography (RhpR): The phosphorylated RhpR was readily detected
ATATTACCGCGCAAACCATCGACCAGGATTTTGCCCGCAACGGCAAGATTCACCGCGCCTGGAAAATCATGGCGCGTGCCTGATACGGTGTGTGATGAGCTTGCCTGTAACAGTTTTGTACAGGTTTGCTCATCGCTCCCTATGAAAATTACTGGCGAATAGCTATAACAGAAGTCATAGCCAGCTTGACGCTTCAGCATGTTGGCGTCATGAGTTTCTG (double strand) [rlmL] | binds | 
CGCCTGGCGAATGTCTTATGGCAGCTTATTCGCAGCAGCAACTCATAGGCATCGGGGGGCTATCGGTCGATCCGTATATCAAAACTGATACCGCAAGGCTAAGGCGTGTGTACGTAACACCTACTGTAAGGAGGCAACATGTAGGTCAGGCGCTGGTAAAAGCATTGATTGCGCAGGCCGCGCTTCGTTTTCAGTGCGTGCGTCTTTCCACTGACACCTCTGAAGGCGATGCGTTTTACCTGCGTTGCGG (double strand) [PSPPH4977] | binds | 
GCAGGAACCCCTCTCGTTATCGGGTTGTCGACAACAGACTGGCTGTTAAAACCTGTTCAGAGTGTGAACAGAGCCTGGACACCTGAATTTTCATTACGAGAGGTTGCC (double strand) [PSPTO_1489 promoter] |  | binding [2]: no binding
GGGAACAGTTTGCGTTTTTCAGCCAGCCTCACTCATTAGCTGGATAAGCAGACAGGCGTTCTTTCACTTGATTCCGGTACAAGTTCTCATAACGATTGAAAGCCTGCTGCATCGATTCATCTATCCATGTATAAATGCTGTTACACATTGGCCCATCTCTGGAGACTCAGCGCATGCGTTACGCGCTCGATCATAAGGCCCAAACCCATCAACGTATCGTCAAGGAAGCGTCCATGCGCTTTCGTCGCGATGGCATTGGTGCTACGGGCTTACAACCTT (double strand) [PSPPH3654] | binds | 
TACAAGGGGTAGGGCTGTGACTGTCAGAAAGGTCCTATGCCCCGACACCTGCACGGTATAGAACACGCCAAACATCACGGCCATACGCCACCATCCGCTCTCCCGAATGTTCAGCAAAAGTACAGATACATCCTGCTACAACAATCCTTGCGCAGAAACATTTGAGCGACTGGGCACTGCGTTCAGCGCCACTGCACCTGCGGATGATTCCGAGGAGGCAACATGTTCTTAAGGTATGGGGTATTGATCGCATCACTTGCGATAGCGTCA (double strand) [PSPPH1086] | binds | 
TTCGATACTTAGCGGATCAGGCATTATCGCATCGCCGCAAAAAATAATCCTGCCGCCGGGAGGAGAGCACACGGTTAGATTGCGCTCGTTGTCGAGTCCAAATAAAGAGTTGTTATATCGTGTATATGTCGAGACTGTAGCTGCGAATACGGATGAAGATCATGTGGTTACAGAGGGGGGTGGCAGCGTTGGTATTAGTCTAACATGGGGG (double strand) [PSPPH0775] | no binding | 
rhpR promoter EMSA probe |  | binding signal (fold affinity vs unphosphorylated RhpR) [3]: 8; binding signal ([3]; scale: fold affinity vs unphosphorylated RhpR): 8
